Assay results published in patent US20160040149A1, “Compositions Having Dicamba Decarboxylase Activity and Methods of Use” (priority 2013, published 2016).

Test: Saturation mutagenesis of SEQ ID NO:109: dicamba decarboxylation activity of point mutants (CO2 released), fold of backbone (Tables 7, 8, Megatable 1)
Settings: decarboxylation activity (CO2 released) of point mutant vs unmutated backbone protein; backbone SEQ ID NO: 109

Row | Molecule | Fold Activity
1 | 40 (protein, listed as Rhodococcus jostii) MAQGKIALEEHFAIPETLNDSAGFVPGTYWDELQARLLDIQDVRLKLMDEHNIETMILSLNAPAVQAIPERERAIDIARRANDVLAEECAKRPDRFRGFAALPLQDPDAAAEELRRCVTELGFVGALVNGFSQSATVDGGSTPLYYDLPRYRPFWAEVERLDVPFYLHPRNPLNQDARIYEGHPWLLGPTWAFAQETAVHALRLMASGLFDEHPGLRIVLGHMGEGIPAMLWRIDHRNAWVDVPPAYPAKRRMVDYFTENFFVTTSGNFRTQTLIDLLLELGSERVMFSTDWPFENINHAAEWFDAASISEADRLKIGRTNAATLFKLDR | 1.4 fold
2 | 43 (protein, listed as Rhizobium leguminosarum) MAQGKIALEEHFAIPETLQDSAGFVPGDYWTELSARLLDIQDKRLRLMDTHGIEKMILSLNAPAVQAIPDKAKAVEISRRANDFLAEQCVKNPNRFLGFAALPLQDPDAATQELQRCVTTMGFVGALVNGFSQEGDGTTPLYYDLPQYRPFWAEVEKLDVPFYLHPRNPLPQDSRIYAGHSWLMGPTWAFAQETAVHALRLMGSGLFDEHPALRIIVGHMGEGLPYMMWRIDNRNAWVKVEKSYPAKRPIADYFNENFYITTSGNFRTQSLIDAMLEIGADRILFSADWPFENVDHAANWFDSATISEADRLKIGRTNAVSLFKLDR | 1 fold
3 | 51 (protein, listed as Mycobacterium gilvum) MARVIAIEEHYAHPGLQPAEALANLRKHPQLARIQDKLEDLGAGRLADMDAAGIDMQVLSHTVPGAEALPAAQAVDVVRQTNDDLAEVIAAHPDRFAGFAALPMRDPQAAATELQRAVGTLGFCGAMINGLIEGRFLDHPDFTPLLSTAADLGVPLYLHPSFPPPQVAQIYFGGLPPVLADLLATAGWGWHAETALHVLRLISTGVFDRLPELRVIVGHMGEMIPFALARIDTVLSPMTELRQPVAQYFQTNVWFTTSGYTTFPPLQCALSTVGIDRLIFSVDYPYTDNASARALLDTAPISPVDREKLAHATVEALLRV | 1.7 fold
4 | 37 (protein, listed as Burkholderia gladioli) MATFSNVKKIALEEHFAIAETIEDSAGFVPPDDWVELRGRLLDIQERRLAEMDRAGIELMVLSLNAPAVQAIRDPRQAVELARRANDYLAEQVARRPDRFRAFAALPMQAPEQAIREAERCVRELGFVGALVNGFSEAEDGAELYYDLPRYRPFWAALEALEVPFYLHPRNPLAGRAPIYDGHSWLMGPTWAFGQETAVHALRLMGSGLFDAHPRLQIILGHMGEGLPYSMWRVDNRNAWVSAKPNYPAEKPIAEYFRNNFWLTTSGNFRTQTLIDAMLEIGSDRILFSADWPFENMDHAADWFDHASISENDRIKIGRGNAERLLKLGR | 1.6 fold
5 | 48 (protein, listed as Amycolatopsis mediterranei) MASMKLYGLEEHFVTADVIEAWRRRDPGLAEPMMKWAVASDITPALLDVDGGRIAAMDDAGIDTTVLSLTTPGLQNLDAAEAVALQAPTNDLIAAAVRRHPGRFQGFATLATSAPAAAADELRRAVTELGLNGALVNANSRGRALDAPGFWDIYEAAEDLRAPVYLHPGVPVPAVTEAYYRGFGEPVNSMLATGAFGWHYDAGLTILRMIVAGVFDRFPGLQVILGHWGEVVLFYLDRVAAMDKLTALRRPIAEYFRSNIFITPGGISSHKYLRWSLETVGVERIMYASDYPFNTERAGSARRFLDTAPVDEAGRERIAYRNWEELIAGIRR | 1.5 fold
6 | 36 (protein, listed as Agrobacterium sp.) MAQGKVALEEHFAIPETLQDSAGFVPGDYWTELQHRLLDIQDTRLKLMDAHGIETMILSLNAPAVQAIPDKTKAIEIARRANDALAEECAKRPNRFLAFAALPLQDPDAATQELQRCVNDLGFVGALVNGFSQEGDGQIPLYYDLPQYRPFWGEVEKLDVPFYLHPRNPLPQDSRIYDGHPWLLGPTWAFAQETAVHALRLMASGLFDEHPRLNIILGHMGEGLPYMMWRIDHRNAWVKLPPRYPAKRRFVDYFNENFHITTSGNFRTQTLIDAILEIGADRILFSTDWPFENIDHASDWFHATSIAEADRVKIGRTNARRLFKLDGR | 2 fold
7 | 39 (protein, listed as Agrobacterium fabrum) MAQGKVALEEHFAIPETLQDSAGFVPGDCWTELQHRLLDIQDTRLKLMDAHGIETMILSLNAPAVQAIPDKTKAIEIARRANDALAEECAKRPDRFLAFAALPLQDPDAATQELRRCVNDLGFVGALVNGFSQEGDGQTPLYYDLPQYRPFWGEVEKLDVPFYLHPRNPLPQDSRIYDGHPWLLGPTWAFAQETAVHALRLMASGLFDEHPRLDIILGHMGEGLPYMMWRIDHRNAWVKLPPRYPAKRRFVDYFNENFHITTSGNFRTQTLIDAILEIGADRILFSTDWPFENIDHASDWFHATSIAEADRVKIGRTNARRLFKLDGR | 1.6 fold
8 | 46 (protein, listed as Rhodococcus opacus) MARIITLEEHYLDPAIAAASAPLARELSPDFAAAYDPASGLSYTPSAQVLQDLGQRRIADMDTHGISMQVLSCLTTQQVPADVAPDLVRAANDTAAAAVRAHPDRFAAFAALPTTAPDAAATELARCIDDLGFVGTMINGRTDGEFLDAPRFDPILATAAARNVPIYLHPAVPPRATSDSNYAGLAPLVTARLQTSAWGWHQETAVHFLHLVLSGVLDRYPNLQFILGHWGEMIPFYLDRLDEALPQAVTNLDRTISDYVRENVYITPSGMFNQAQLQYCVETLGVDRILYSVDYPFIGNDGAVSFLDEANLPDEAKHQIAHQNTEKLLGL | 1.1 fold
9 | 49 (protein, listed as Streptomyces sp.) MAKIIALEEHFSDPAVAKAGAARARALSPGFAASYSPASGLPYSPSPEVLENLAEKRLADMDAGGITMQVLSGLGAQTVPADVAPALVAGSNDKAAAAVRAHPDRFAAFAALPTATPEAAVAELDRSVNELGFVGTLIMGRTEGEFLDAPRFEPILARAAALKVPVFLHPGVPPREITDSNYAAGLPTGIGTRLQTAAWGWHQETAVHFLHLVHSGVLDRYPDLQFILGHWGEMIPFYLDRVDEALPQRATGLDRSFHEYFRENVYLAPSGMWSQAQLRFCLETVPLERIVFAVDYPFIGNEGAVPFLEKAELPQADKRKIAHENAERLLGL | 2 fold
10 | 50 (protein, listed as Streptomyces sp.) MARIVTLEEHWTDPAVTAAGMPNLLDHVPGYAAAFDPDTGMPYPRHPELLEDLGAARIADMDRHGITTQVLSLVNTFLPADVAPRLTAAANDAMAAAVEAFPGRFAAFATLPTAVPGAAADELRRCVGELGFVGTMIMGRTDGEFLDQPRFDPILRAASDLSVPVYLHPAPPPVAVSEASYAGGLSPAVSAAFRLAAWGWHQETAVHLLHLVLAGVLDRYPGLQFVLGHWGEFIPFYLDRLDESMPRRMTGLDRTFREYFRDNVFITPSGMFSQAQLRYCADTVGTDRIIHSVDFPMLGNEGAVSFLTDSHLSREDQEKIAHGNADALLGLG | 1.7 fold
11 | 47 (protein, listed as Serratia odorifera) MAKIICLEEHTLDKALVMASMPAALAQAPFLSDWGKTITDGNLPDRSRPQIEKNDLINVKGADIGRGRLDDMDEAGITMQVLSVGGFPHLISAAEGVDLNRAANDRLANAVNAHPDRFAAFATLPWAQPDAAEKELERAVKELGFKGALLNGRPSIHFLDHPDYDGLLARFNALGVPLYLHPGLPVRSVQQAYYSGFSDEVTARLSMFGWGWHHEAGIHLLRLILSGAFDKYPNLQVISGHWGEMLPFWLQRLDDSLPQAATGLRRTITQTFREQVYVTPSGMLTLPHFQFIYALLGAERILFSVDYPYQTLDGVKAFIQSLPVPEEAKEAIAFRNAERLFGLTS | 1.2 fold
12 | 35 (protein, Burkholderia sp) MAFKASRKIALEEHFAIDATVQDSAGFVPPSYWAELKRRLLDIHDRRIDEMDRNGVELMVLSLNAPTVQAVPNIKDAYDLSRRANDFLAEQIVKRPERFKGFAALPMQSPDLAARELERCVKELNFVGALVNGFSQVEESGTALYYDLPQYRQFWSVVQALDVPFYLHPRNPLPAHAPIYEGHPWLLGPTWAFGQETAVHALRLMGSGLFDEYPELKIILGHMGEGLPYSMWRIDNRNAWVETQPNYPAKKRIAEYFHKNFWLTTSGNFRTQTLIDAMLEIGSDRILFSTDWPFENVDHAAQWFDDAAISENDRIKIARTNAARLFKLEP | 2.2 fold
13 | 45 (protein, Mycobacterium sp) MANDDLAEVIAAHPDRFAGFAALPMRDPQAAAVELQRAVGTHGFCGAMINGLIEGRFLDDPAFAPLLSTAADLGVPLYLHPSFPPPQVAEIYFGGLAPVLGDLLATAGWGWHAETALHVLRLVATGVFDRLPELWVIVGHMGEMIPFALARIDTVLSPVAQLRQPVAQYFQTNVWFTTSGYTTFPPLQCALSTVGIDRLIFSVDYPYTDNTSARALLDTAPISPVDREKLAHGTVEALLRV | 1.7 fold
14 | 38 (protein, listed as Variovorax paradoxus) MAQGKIGLEEHFAIPQTLQDSAGFVPGVYWKELSSRLLDIHDGRLRQMDEHGMEMMILSLNAPAVQAVADPVKAYELAVRANDFLAEQVAKRPDRFQAFAALPMQDPEKATQELERCMSVLGFRGALVNGFSQVGTPDNVAYYDAPQYAPFWAAAERLDAPFYLHPRNPIASWAQIYEGHPWLLGPTWAFAQETAVHALRLMASGLFDRHPGLKIILGHLGEGLPYNMWRVDHRNAWVKAPKGYPAKRKLCEYFQENFYLTTSGNFRTQTLIDAMLEVGSDRILFSTDWPFENIDHASNWFNDTSISEADRKKIGRTNAMSLFKLA | 1.8 fold
15 | 42 (protein, Agrobacterium radiobacter) MAQGKIALEEHFAIPDTLQDSAGFVPGDYWKELSARLLDIHEQRLMQMDAYGIEKMILSLNAPAVQAIPDKAKALEISRRANDFLAEQCARNPDRFLGFAALPLQDPDAATAELQRCVKTLGFVGALVNGFSQEGDGVTPLYYDLPQYRGFWAEVEKLAVPFYLHPRNPLPQDSRIYAGHPWLMGPTWAFAQETAVHALRLVGSGLFDDHPALRIILGHMGEGLPYMMWRIDNRNAWVKVAPNYPAKRRIADYFNENFYITTSGNFRTQSLVDAMLEIGADRILFSTDWPFENIDHASDWFDTATISEADRLKIGRTNAATLFNLES | 1.7 fold
16 | 44 (protein, listed as Mycobacterium avium) MARIITVEEHFQHPEVSARVAELTGPAVEGLAEFGNAFSLDPDSTARLGGNRLAHMDQVGIDVQVVSHGNGSPGTLQHPEAVELCRRVNNDLAAQIAENPDRFRGFATLPLYDPAAAAEELRRCVGDLGFVGALIAGSYDGLFLDDERFDPILTAAEAVDFPIYVHPGLPEAPVSQRYYAGSWPASVHMMFSGPAFGWHAEAGIHIVRLILSGALDRHPTLKLLSGHWGELAAFYLERLDETLGLLPTGLERAPSDYYRQQVWITPSGMYNQNQLNFMTAELGAQRIIYSEDFPYVVRDNVSTFLEQAGLSEADTHAIAHTNAEALLRI | 0.7 fold
